The nanobody polyreactivity screen of Harvey et al. (2022)

Assay: yeast display, Sf9 membrane polyspecificity reagent, FACS + sequencing; frameworks hold sequencing errors
Procedure, shortened: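 Sorting gates, low and high (top ~1%), were placed on anti-HA fluorescence to track expression and on streptavidin fluorescence to track reagent binding. A clone's polyreactivity label is taken from the gate it came out of. The reagent was 10% biotinylated, detergent-solubilized Sf9 membrane, applied for 1 hour at 4 °C to galactose-induced yeast display cells.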

Sequence	polyreactivity (PSR sort gate)
QVQLVESGGGLVQAGGSLRLSCAATGLIIPFSAMGWDREPPGKDRDLVAAISWSAGSTYYADSVKGRFTISRDNAKNSVYLHMNSLKPEDTAVYYCATDRNPADFYWGQGTQVTVSS	low polyreactivity
QVQLVESGGGLVQAGGSLRLSCAASGLTFGYYVMGWYRQAPGKERELVADINFSGGSTYYADSVKGRFTISRDNAKNTVYLQMNSLKPEDTAVYYCNGVVYRFTVSTGYESWGQGTQVTVSS	low polyreactivity
QVQLVESGGGLVQAGGSLRLSCAASGRIFDWNVMGWYRQAPGKERELVAVINDSTGTTYYADSVKGRFTISRDNAKNTVYLQMNSLKPEDTAVYYCSADWSVFTYFYGYDYWGQGTQVTVSS	low polyreactivity
QVQLVESGGGLVQAGGRLRLSCAASGSTFQFYAMGWYRQAPGKERELVAAITSSGSSTYYADSVKGRFTISRDNAKNTVYLQMNSLKPEDTAVYYCAARYYGYSVSYYYWGQGTQVTVSS	high polyreactivity
QVQLVESGGGLVQAGGSLRLSCDASGRIFSVYAMGWYRQEPGKEREFVSAISRGGSTNYADSVNGRFTISRDNAKYTVYLQKNSLKPEDTAVYYWGASSLPNYYYRHYYLYEYWGQGTQVTVSS	low polyreactivity
QVQLVESGGGLVQAGGSLRLSCAASGRTFPRNGMGWYRQAPGKERELVAAISWSGGRTYYADSVKGRFTISRDNAKYTVYLQMNSLKPEDTAVYYCNALYFRKGGYWGHGTQVTVSS	high polyreactivity
QVQLVESGGGLVQAGGSLRLSCAASGRTFWYNAMGWYRQAPGKERELVAVISSGAITYYADSVKGRFTISRDNAKNTVYLQMNSLKPEDTAVYYCNAQRRGTYYWGQGTQVTVSS	high polyreactivity
QVQLVESGGGVVQAGGSLRLSCAASGSIFNRYAMGWYRQAPGKERELVAAISTHTGTTYYADSVKGRFTISRDNAKNTVYLQMNSLKPEDTAVYYCNAATYGGRYYYWGQGTQVTVSS	high polyreactivity
QVQLVESGGGLVQAGGSLRLSCAASGRTFYFYTMGWYRQAPGKERELVAAITLSGVSTYYADSVKGRFTISRDNAKITVYLQMNSLKPEDTAVYYCNAVYIRPGYRRYDYWGQGTQVTVSS	high polyreactivity
QVQLVESGGGLVQAGGSLRLSCAASGNIFYNGMGWYRQAPGKERELVAAIRGSAGRTYADSVKGRFTISRDNAKNTVYLQMNILKPEDTAVYYCAAAKRYYSEMYWGQGTQVTVSS	high polyreactivity
QVQLVESGGGLVQAGGSLRLSCAASGRTFYYYAMGWNRQAPGKEREFVASITWRGGRTYYADSVKGRFTISRDYAKNTVYLQMNSLKPEDTAVYYCAADGSYAIGGYGYWGQGTQVTVSS	high polyreactivity
QVQLVESGGGLVQAGGSLRLSCAASGRTFKRYAMGWYRQAPGKERELVARITYSGARTYYADSVKGRFTISRDNAKNTVYLQMNSLKPEDTAVYYCAAQQYWTSQYFRSATFDYWGQGTQVTVSS	high polyreactivity
QVQLVESGGGLVQAGGSLRLSCAASGRTSVWYTMGWYRQAPGKEREFVASITGSGTYYADSVKGRFTISRDNAKNTVYLQMNSLKPEDTAVYYCAKRGYGYWGQGTQVTVSS	high polyreactivity
QVQLVESGGGLVQAAGSLRLSCAASGFIFLVYSMGWSRQAPGKARELVAAISASGGRTYYADSVKGRFTISRDNAKNTVYLQMNSLKPEDTAVYYCARLLPTPGKPILDYWGQGTQVTVSS	low polyreactivity
QVQLVESGGGLVQAGGSLRLSCAASGFTFGTYAMGWYRQAPGKERELVAAISARGGSTYYADSVKGRFTISRDNAKNTVYLQMNSLKPEDTAVYYCAAYYGRHVTPPTGYDYWGQGTQVTVSS	high polyreactivity
QVQLVESGGGLVQAGGSLRLSCAASGSIFGYNTMGWYRQAPGKERELVAAISWNGGNTYYADSVKGRFTISRDNAKNTVYLQMNSLKPEDTEVYYCNARTRSRSRGFDSWGQGTQVTVSS	high polyreactivity
QVQLVESGGGLVQAGGSLRLSCAASGRIFDGYAMGWYIQAPGKERELVAAISSRGGRTYYADSVKGRFTISRDNAKNTVYLQMNSLKPEDSAVYYCAADDPYGECDYWGQGTQVTVSS	low polyreactivity
QVQLVESGGGLVQAGGSLRLSCAASGSTFYYNAMGWYRQAPGKERELVAAITWGGGSTYYADSVKGRFTISRDNAKNTVYLQMNSLKPEDTAVYYCNAEDYVWYYYYYDIYDYWGQGTQVTVSS	high polyreactivity
QVQLVESGGGLVQAGGSLRLSCAASGFTFDYYAMGWYRPAPGKERELVAAISWRGTTTYYADSVKGRFTISRDNEKNTVYLQMNSLKPEDTAVYYCAADSLFGHYDYWGHGTQVTVSS	low polyreactivity
QVQLVESGGGLVQAGGSLRLSCAASGIFGSYAMGWYRQAPGKERELVAAISSGGSTYYADSVKGRFTISRDNAKNTVYLQMNSLKPEDTAVYYCAKRYGRAYRSYYWGQGTQVTVSS	high polyreactivity
QVQLQESGGGLVQAGGSLRLSCAESGYISHAVEMGWYRQAPGKVHELVASISNGGSTNYADSVKGRFTISRDNAKNTVYLQMNSLKSEDTAVYYCAAWTGQVDIHSYWGQGTQVSVSS	low polyreactivity
QVQLVESRGGLVQAGGSLRLSCAASGSTFTYNAMGWYRQAPGKERELDAAISSDGRTYYADSVKGRFTISRDNAKNTVYLQMNSLQPEDTALYYCAAMYWFYVYPFTEYDYWGQGTQVTVSS	low polyreactivity

Sequence	polyreactivity (PSR sort gate)
QVQLVESGGGLVQAGGSLRLSCAASGLTFSLYAMGWYRQAPGKERELVAAISWTGGSTYYADSVKGRFTISRDNAKNTVYLQMNSLKPEDTAVYYCNARYTLFARYCYDYWGQGPQVTVSS	low polyreactivity
QVQLVESGGGLVQAGGSLRLSCAASGSIFEANDMGWYRQAPGKERELVAAIDANTGSTYYADSVKGRFTISRDNAKNTVYLQMNSLKPEDTAVYYCNAQVYLHTAYDYWGQGTQVTVSS	low polyreactivity
QVKLVESGGCLVQAGGSLRLSCAASGRTIGYYGMGWYRQAPGKARELVAAITGSGGSTYYADSVKGRFTISRDNSKNTVYLQMNILIPEDTAVYYCAATYLSRWTLYDYWGQGTQVTVSS	high polyreactivity
QVQLVESGGGLVQAGGSLRLSCAASGRIFRYNAMGWYRQAPGKERELVAAITRSGGSTYYADSVKGRFTISRDNAKNTVYLQMNSLKPEDTAVYYCAKVQNGQWSTSRVPGDYQYNYWGQGTQVTVSS	high polyreactivity
QVQLVESGGGLVQAGGSLRLSCDASGRTFGHKAMAWYRQAPGKEREFVAAITYSCVRTFYADSVKGRFTISRDNAKNTVYLQMNSLKQEDTAVYYCATDWRRDYDFWGQGTQVTVSS	low polyreactivity
QVQLVESGGGLVQAGGSLRLSCAASGFIFHTTVMVSYRQAPAKERELVAAISSGDSTYYADSVKGRFTISRDNAKNTVYLHMNSLKPEDTEVYYCARNVNAQKVLGGFDSWGQGTQVTVSS	low polyreactivity
QVQLVESGGGLVQAGGSLRLSCAASGFTFWYYAMGWYRQAPGKERELVATITSGGRTSYADSVKGRFTISRDNAKNTVYLQMNSLKPEDTAVYYCAAVARYTPGYGYWGQGTQVTVSS	high polyreactivity
QVHLVESGGGLVQAGGSLRLSSAAYGRTFKYNAMGWYRQAPGKRKELVAAISSGGSTYYADSVKGRFTISRDNAKKTVYFQMNSLKPEDTAVYYCAVRNTKSYWFGYWGQGTQVTVSS	high polyreactivity
QVQLVESGGGLVQAGGSLRLSCAASGSTFYKNAMGWYRQAPGKERELVAGISRRGGRTYYADSVKGRFTISRDNAKNTVYLQMNSLKPEDTAVYYCNTGHEEDEYDYWGQGTQVTVSS	low polyreactivity
QVQLVESGGGLVQAGGSLRLSCAASGTFFGYAMGWYRQAPGKERELVAAITSGGSTYYADSVKGRFTISRDNAKNTVYLQMNSLKPEDTAVYYCARVYSRWSYRYDYWGQGTQVTVSS	low polyreactivity
QVQLVESGGGLVQAGGSLSLSCAASGFISASNVMGWYRHAPGKERELVAAINWSGDNTYYADSVKWRFTISRDTAKNTVYLLMNSLKAEDTAVYYCNDDVYSYATPEMDYWGQGTQVTVSS	low polyreactivity
QVQLVESGGGLVQAGGSLRLSCAASGRTFDYNAMGWYRQAPGKEWELVADIRLISGNTYYADSVKGRFTISRDNAKNTVYLQMNSLKPEETAVYYCAATSDGVPSLYGGMDYRGQGTQVTVSS	low polyreactivity
QVQLVESGGGLVQAGGSLRLSCAASGTIFSLYAMGWYRQAHGKERELVAAISGSGSSTHYADSVKGRFTISRDNAKNTVYLQMNSLKPEDSAVYYCAATYWTNSYYYWGQGTQVTVSS	low polyreactivity
QVQLVESGGGLVQAGGSLRLSCAASGRIFNKNAMGWYRQAPGKERELVAAITYSGGSTYYADSVKGRFTISRDNAKNTVYLQMNSLKPEDTAVYYCARDLYYVYSFAPYRYEYWGQGTQVTVSS	low polyreactivity
QVQLVESGGGLVQAGGSLRLSCAPSGFIFYANDMGWYRQAPGKERELVARITNSGGSTYYADSVKGRFTISRDNAKNTVYLQMNSLKPEDTAVYYCAAWRRFNYSRRYYYWGQGTQVTLSS	high polyreactivity
QVQLVESGGGLVQAGGSLRVSCAASGNSFTGYVMGWYRQAPGKERELVAAIRSGGSTYYADSVKGRFRISRDNAKNTVYLQMTSLKPEDTAVYYCNARYRYRLRGYDYWGQGTQVTVSS	high polyreactivity
QVQLVESGGGLVQAGGRLRLSCAASGRTFYYYAMGWYRQAPGKERELVAAISWSGGRTYYADSVKGRFTISRDNAKNTVYLQMNSLKPEDTAVYYCNAETAAAQASYDRLDVLLDYWGQGTQVTVSS	low polyreactivity
QVQLVESGGGLVQAGGSLRLSSAASGRTFYLYAMGWYRQAPGKAMELVAAISRSGGITYYADSVKGRFTISRDNAKNTVYLQMNSLKPEDTGVYYCAASRAGGYYGKGYSWGQGSQVTVSS	high polyreactivity
QVQLVESGGCLVQAGGSLRLSCAASGSTLVIYAMGWYRQAPGKESELVAAINFSDGSTSYADSVKGRFTISRDNAKNTVYLQMNSLKPEDTAVYYCAADWWYGYSNYDYWGQGTQVTVSS	low polyreactivity
QVQLVESGGGLVQAGGSLRLSCAASGRIFYYSAMGWSRQAPGIERELVAAITRRGGSTYYADSVKGRVTISRDNAKNTVFLQMNSLKPEDTEVYYSAKPDRTCWLDGDYWGQGSQVTVSS	low polyreactivity
QVQLVDSGGGLVQAGGSLRLSCAASGRTFGRKAMGWYRQAPGERELVAVISRGGSTYYADSVKGRFTISRDNAKNTVYLQMNSLKPEDTAVYYCNADTVYTRTAPYDYCGQGTQVTVSS	low polyreactivity
